Measured values from patent US20250262210A1 (TRUSTEES OF COLUMBIA UNIVERSITY IN THE CITY OF NEW YORK, published 2025).

Assays:
Assay in all cases: IP/MS, LZTR1 wild type-FLAG, U87
VPS18 = biological target: T1, VPS18 (human, UniProt Q9P253 2-973)
T1 sequence (looked up): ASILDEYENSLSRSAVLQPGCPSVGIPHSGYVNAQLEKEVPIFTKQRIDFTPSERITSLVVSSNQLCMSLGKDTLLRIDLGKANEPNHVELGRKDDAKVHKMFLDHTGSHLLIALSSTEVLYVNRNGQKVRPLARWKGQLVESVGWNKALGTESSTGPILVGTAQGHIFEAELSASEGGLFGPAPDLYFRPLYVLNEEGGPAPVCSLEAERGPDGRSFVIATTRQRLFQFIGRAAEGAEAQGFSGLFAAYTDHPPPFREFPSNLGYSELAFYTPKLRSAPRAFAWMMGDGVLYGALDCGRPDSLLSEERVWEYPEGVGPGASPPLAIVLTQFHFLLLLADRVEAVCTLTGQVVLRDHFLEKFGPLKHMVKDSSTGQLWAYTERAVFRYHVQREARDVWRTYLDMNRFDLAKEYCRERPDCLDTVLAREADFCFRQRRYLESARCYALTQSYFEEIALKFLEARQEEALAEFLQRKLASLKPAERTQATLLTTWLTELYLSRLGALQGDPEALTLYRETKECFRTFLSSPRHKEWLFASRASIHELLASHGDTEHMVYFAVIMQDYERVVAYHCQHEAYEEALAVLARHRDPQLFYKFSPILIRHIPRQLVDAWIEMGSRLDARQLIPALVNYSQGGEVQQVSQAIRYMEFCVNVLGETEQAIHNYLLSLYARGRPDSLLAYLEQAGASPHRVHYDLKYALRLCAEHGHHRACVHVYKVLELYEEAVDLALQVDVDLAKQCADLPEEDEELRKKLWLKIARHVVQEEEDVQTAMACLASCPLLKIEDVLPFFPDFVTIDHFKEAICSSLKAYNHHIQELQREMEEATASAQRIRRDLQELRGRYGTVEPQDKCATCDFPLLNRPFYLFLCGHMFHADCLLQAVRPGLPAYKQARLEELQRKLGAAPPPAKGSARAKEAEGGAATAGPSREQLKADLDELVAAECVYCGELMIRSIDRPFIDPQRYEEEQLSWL
Summary of the method: (§1)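 Read-out: spectral counts from LC-MS/MS (Orbitrap Fusion) after MaxQuant identification. Variable modifications were Met oxidation, protein N-terminal acetylation and N/Q deamidation.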

KDM5C = KDM5C (human, UniProt P41229 1-1560, limits assumed)
Sequence of KDM5C (P41229 whole entry): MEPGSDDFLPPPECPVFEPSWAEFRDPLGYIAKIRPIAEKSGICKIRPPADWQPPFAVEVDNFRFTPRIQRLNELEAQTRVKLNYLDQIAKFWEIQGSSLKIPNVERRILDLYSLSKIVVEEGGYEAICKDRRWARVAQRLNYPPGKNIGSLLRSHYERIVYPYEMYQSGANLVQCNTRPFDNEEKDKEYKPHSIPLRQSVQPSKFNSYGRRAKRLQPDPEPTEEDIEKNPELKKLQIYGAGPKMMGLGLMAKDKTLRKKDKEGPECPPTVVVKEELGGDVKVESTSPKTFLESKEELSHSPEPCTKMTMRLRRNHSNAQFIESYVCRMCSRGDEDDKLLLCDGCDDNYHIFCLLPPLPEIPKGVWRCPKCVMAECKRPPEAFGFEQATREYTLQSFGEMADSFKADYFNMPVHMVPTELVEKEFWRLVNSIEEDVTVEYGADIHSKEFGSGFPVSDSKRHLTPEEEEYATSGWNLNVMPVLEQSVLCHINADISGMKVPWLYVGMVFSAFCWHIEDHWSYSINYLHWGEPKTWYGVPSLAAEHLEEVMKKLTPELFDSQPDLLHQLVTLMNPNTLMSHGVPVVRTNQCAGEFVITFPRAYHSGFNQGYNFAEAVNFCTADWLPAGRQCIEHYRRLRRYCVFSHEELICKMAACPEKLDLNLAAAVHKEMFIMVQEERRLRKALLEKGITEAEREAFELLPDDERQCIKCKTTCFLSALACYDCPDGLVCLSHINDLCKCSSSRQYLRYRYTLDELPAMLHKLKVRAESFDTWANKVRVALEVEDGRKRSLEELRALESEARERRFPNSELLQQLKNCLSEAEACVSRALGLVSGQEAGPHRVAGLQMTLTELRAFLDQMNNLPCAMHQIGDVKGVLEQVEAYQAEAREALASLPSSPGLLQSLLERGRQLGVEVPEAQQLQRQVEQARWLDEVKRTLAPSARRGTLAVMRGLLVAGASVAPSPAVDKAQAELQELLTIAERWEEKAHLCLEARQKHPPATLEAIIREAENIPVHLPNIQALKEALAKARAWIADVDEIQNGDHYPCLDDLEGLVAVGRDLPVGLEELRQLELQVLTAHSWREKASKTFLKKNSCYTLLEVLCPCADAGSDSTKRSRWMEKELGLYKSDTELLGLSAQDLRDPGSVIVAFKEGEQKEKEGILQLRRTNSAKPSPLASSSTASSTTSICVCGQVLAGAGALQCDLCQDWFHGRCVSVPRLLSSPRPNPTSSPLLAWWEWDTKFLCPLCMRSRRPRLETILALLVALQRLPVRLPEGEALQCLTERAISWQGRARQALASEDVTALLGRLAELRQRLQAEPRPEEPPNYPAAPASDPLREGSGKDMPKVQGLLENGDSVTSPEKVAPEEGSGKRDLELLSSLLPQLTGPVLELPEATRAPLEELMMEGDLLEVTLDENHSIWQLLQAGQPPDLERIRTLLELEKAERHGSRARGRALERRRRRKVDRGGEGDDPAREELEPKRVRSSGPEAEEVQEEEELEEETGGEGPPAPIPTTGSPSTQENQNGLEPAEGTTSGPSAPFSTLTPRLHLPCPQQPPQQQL
Summary of the method: as §1

PEAK1 = PEAK1 (human, UniProt Q9H792 1-1746)
Sequence of PEAK1 (Q9H792 whole entry): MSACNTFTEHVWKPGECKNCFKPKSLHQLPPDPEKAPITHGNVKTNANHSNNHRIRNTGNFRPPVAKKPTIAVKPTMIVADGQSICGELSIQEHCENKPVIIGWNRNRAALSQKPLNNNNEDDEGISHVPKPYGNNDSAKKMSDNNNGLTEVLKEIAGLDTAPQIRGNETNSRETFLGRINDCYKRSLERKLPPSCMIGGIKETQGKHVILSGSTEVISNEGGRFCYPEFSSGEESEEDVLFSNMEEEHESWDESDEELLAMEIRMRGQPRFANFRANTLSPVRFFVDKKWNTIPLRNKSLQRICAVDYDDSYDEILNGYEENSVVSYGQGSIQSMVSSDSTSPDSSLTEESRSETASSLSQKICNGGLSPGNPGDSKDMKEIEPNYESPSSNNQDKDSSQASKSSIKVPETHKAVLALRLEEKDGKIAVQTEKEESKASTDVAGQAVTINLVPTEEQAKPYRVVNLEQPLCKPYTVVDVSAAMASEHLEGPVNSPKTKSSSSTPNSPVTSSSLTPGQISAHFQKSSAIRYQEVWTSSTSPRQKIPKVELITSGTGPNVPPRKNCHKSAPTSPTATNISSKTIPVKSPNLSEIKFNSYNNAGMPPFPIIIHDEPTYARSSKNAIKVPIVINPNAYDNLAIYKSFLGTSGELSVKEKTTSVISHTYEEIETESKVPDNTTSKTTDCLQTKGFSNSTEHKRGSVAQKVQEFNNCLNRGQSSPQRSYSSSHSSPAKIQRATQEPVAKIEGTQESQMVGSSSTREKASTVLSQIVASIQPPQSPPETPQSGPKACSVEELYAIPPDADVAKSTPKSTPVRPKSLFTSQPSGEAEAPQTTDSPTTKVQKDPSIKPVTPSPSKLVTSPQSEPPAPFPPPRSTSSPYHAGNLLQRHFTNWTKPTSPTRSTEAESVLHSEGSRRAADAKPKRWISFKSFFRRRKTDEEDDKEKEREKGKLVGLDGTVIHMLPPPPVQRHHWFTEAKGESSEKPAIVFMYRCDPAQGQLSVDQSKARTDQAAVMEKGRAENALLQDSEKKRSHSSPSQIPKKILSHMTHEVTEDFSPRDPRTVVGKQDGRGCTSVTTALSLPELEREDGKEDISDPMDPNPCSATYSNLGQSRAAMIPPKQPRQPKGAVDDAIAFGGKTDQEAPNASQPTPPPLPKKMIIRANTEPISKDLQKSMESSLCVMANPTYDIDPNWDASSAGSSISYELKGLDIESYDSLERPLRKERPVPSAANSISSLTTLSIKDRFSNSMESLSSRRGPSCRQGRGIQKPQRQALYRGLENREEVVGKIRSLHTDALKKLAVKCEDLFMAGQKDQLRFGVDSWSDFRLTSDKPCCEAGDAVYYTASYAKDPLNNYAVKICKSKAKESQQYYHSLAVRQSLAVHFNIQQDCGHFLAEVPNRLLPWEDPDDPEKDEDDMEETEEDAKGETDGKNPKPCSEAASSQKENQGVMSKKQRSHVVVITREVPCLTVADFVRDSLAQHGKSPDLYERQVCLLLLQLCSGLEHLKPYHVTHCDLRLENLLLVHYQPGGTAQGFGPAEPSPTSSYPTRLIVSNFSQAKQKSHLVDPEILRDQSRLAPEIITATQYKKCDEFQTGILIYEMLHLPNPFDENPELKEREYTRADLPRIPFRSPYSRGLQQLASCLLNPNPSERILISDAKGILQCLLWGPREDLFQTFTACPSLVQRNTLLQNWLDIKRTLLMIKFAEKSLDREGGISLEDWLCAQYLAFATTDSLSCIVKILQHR
Summary of the method: as §1

MTR = MTR (human, UniProt Q99707 1-1265, limits assumed)
Sequence of MTR (Q99707 whole entry): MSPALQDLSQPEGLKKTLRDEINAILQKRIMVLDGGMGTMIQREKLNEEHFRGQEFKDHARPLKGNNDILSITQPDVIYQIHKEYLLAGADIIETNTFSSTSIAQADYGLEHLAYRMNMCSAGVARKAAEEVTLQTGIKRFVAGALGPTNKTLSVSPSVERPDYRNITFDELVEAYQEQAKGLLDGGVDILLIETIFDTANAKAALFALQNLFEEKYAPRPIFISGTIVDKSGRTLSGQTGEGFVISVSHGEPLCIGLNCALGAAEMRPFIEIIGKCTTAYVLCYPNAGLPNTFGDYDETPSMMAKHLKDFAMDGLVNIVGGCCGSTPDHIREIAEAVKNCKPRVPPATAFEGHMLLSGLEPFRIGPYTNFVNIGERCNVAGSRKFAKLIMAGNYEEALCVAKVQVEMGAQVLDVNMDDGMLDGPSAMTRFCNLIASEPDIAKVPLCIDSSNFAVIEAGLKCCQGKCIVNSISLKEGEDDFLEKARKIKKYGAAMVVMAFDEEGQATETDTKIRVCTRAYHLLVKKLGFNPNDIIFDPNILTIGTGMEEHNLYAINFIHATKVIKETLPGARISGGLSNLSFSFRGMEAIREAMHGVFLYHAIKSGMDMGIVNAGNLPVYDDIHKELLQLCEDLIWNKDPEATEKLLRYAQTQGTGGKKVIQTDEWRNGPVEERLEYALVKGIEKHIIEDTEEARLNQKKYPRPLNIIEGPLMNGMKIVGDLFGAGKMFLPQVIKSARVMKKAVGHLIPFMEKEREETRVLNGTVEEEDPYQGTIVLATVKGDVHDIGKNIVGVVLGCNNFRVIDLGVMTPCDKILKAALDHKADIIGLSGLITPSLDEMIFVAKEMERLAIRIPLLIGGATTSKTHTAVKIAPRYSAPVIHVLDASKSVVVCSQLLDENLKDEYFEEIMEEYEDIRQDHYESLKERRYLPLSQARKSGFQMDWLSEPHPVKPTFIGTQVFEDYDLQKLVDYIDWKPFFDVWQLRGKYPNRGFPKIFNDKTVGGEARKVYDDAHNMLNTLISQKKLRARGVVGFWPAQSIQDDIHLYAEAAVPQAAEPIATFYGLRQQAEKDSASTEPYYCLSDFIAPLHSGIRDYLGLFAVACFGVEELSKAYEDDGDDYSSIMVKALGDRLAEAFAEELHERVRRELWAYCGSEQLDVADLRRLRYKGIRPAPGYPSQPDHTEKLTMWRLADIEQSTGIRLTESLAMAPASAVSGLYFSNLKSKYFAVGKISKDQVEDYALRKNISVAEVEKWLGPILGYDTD
Summary of the method: as §1

TRAPPC11 = biological target: T2, TRAPPC11 (human, UniProt Q7Z392 1-1133, limits assumed)
T2 sequence (looked up): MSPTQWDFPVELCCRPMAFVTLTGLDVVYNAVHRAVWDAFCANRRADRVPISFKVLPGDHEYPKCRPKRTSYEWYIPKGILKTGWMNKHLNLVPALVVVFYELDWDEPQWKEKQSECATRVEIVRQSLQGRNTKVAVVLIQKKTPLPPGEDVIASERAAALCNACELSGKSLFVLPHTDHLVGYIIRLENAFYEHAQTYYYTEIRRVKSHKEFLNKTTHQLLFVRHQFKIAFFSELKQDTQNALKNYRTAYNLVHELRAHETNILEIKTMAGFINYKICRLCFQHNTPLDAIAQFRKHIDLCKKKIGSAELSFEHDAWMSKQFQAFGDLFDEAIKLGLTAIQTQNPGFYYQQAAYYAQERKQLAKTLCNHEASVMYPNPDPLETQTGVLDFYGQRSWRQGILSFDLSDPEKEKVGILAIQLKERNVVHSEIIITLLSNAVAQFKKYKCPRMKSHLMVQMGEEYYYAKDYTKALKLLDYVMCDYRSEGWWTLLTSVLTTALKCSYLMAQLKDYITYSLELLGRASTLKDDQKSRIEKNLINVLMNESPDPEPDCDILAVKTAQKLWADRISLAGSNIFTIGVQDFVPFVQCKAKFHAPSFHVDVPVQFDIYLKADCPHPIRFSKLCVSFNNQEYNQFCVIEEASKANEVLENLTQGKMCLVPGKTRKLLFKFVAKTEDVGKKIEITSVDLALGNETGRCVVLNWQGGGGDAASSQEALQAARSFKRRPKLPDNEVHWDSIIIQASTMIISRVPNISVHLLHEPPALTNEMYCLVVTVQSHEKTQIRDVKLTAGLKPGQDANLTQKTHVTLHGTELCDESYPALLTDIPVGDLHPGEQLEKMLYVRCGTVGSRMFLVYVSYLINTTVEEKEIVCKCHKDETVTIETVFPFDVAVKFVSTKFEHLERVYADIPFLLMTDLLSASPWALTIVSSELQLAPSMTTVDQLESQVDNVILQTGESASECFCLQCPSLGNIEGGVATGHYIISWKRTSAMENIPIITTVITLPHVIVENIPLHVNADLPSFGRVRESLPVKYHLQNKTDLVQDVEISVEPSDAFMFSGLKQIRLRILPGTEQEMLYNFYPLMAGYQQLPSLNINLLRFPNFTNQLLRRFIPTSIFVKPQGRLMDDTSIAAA
Summary of the method: as §1

Measured: binding result

B1: LZTR1-FLAG (other, human, UniProt Q8N653 1-840, looked up)
chain: MAGPGSTGGQIGAAALAGGARSKVAPSVDFDHSCSDSVEYLTLNFGPFETVHRWRRLPPCDEFVGARRSKHTVVAYKDAIYVFGGDNGKTMLNDLLRFDVKDCSWCRAFTTGTPPAPRYHHSAVVYGSSMFVFGGYTGDIYSNSNLKNKNDLFEYKFATGQWTEWKIEGRLPVARSAHGATVYSDKLWIFAGYDGNARLNDMWTIGLQDRELTCWEEVAQSGEIPPSCCNFPVAVCRDKMFVFSGQSGAKITNNLFQFEFKDKTWTRIPTEHLLRGSPPPPQRRYGHTMVAFDRHLYVFGGAADNTLPNELHCYDVDFQTWEVVQPSSDSEVGGAEVPERACASEEVPTLTYEERVGFKKSRDVFGLDFGTTSAKQPTQPASELPSGRLFHAAAVISDAMYIFGGTVDNNIRSGEMYRFQFSCYPKCTLHEDYGRLWESRQFCDVEFVLGEKEECVQGHVAIVTARSRWLRRKITQARERLAQKLEQEAAPVPREAPGVAAGGARPPLLHVAIREAEARPFEVLMQFLYTDKIKYPRKGHVEDVLLIMDVYKLALSFQLCRLEQLCRQYIEASVDLQNVLVVCESAARLQLSQLKEHCLNFVVKESHFNQVIMMKEFERLSSPLIVEIVRRKQQPPPRTPLDQPVDIGTSLIQDMKAYLEGAGAEFCDITLLLDGHPRPAHKAILAARSSYFEAMFRSFMPEDGQVNISIGEMVPSRQAFESMLRYIYYGEVNMPPEDSLYLFAAPYYYGFYNNRLQAYCKQNLEMNVTVQNVLQILEAADKTQALDMKRHCLHIIVHQFTKVSKLPTLRSLSQQLLLDIIDSLASHISDKQCAELGADI
notes: Expressed in HEK 293T, HeLa or U87 cells; used as cell lysate; also called LZTR1 wild type-FLAG; LZTR1 WT; not shown: FLAG tag at the C-terminus
binds: VPS18 | KDM5C | PEAK1 | MTR | TRAPPC11
